{"source": "patent US20120100141A1", "about": "(GlaxoSmithKline, published 2012)", "binders": {"B1": {"name": "GLP-1 (7-37) A8G, helical linker, DOM7h-14 dAb fusion (DAT0120) (other)", "chain": "HGEGTFTSDVSSYLEGQAAKEFIAWLVKGRGKEAAAKEAAAKEAAAKELAAKEAAAKEAAAKEAAAKELAADIQMTQSPSSLSASVGDRVTITCRASQWIGSQLSWYQQKPGKAPKLLIMWRSSLQSGVPSRFSGSGSGTDFTLTISSLQPEDFATYYCAQGAALPRTFGQGTKVEIKR", "notes": "Single-chain genetic fusion of GLP-1 (7-37) A8G, helical linker and DOM7h-14; also called GLP-1 (7-37) A8G, helical linker, DOM7h-14 fusion; GLP-1 A8G, helical linker, DOM7h-14 fusion"}, "B2": {"name": "Cynomolgus monkey serum albumin (CSA) (other, UniProt A2V9Z4 25-608, looked up)", "chain": "DTHKSEVAHRFKDLGEEHFKGLVLVAFSQYLQQCPFEEHVKLVNEVTEFAKTCVADESAENCDKSLHTLFGDKLCTVATLRETYGEMADCCAKQEPERNECFLQHKDDNPNLPPLVRPEVDVMCTAFHDNEATFLKKYLYEVARRHPYFYAPELLFFAARYKAAFAECCQAADKAACLLPKLDELRDEGKASSAKQRLKCASLQKFGDRAFKAWAVARLSQKFPKAEFAEVSKLVTDLTKVHTECCHGDLLECADDRADLAKYMCENQDSISSKLKECCDKPLLEKSHCLAEVENDEMPADLPSLAADYVESKDVCKNYAEAKDVFLGMFLYEYARRHPDYSVMLLLRLAKAYEATLEKCCAAADPHECYAKVFDEFQPLVEEPQNLVKQNCELFEQLGEYKFQNALLVRYTKKVPQVSTPTLVEVSRNLGKVGAKCCKLPEAKRMPCAEDYLSVVLNRLCVLHEKTPVSEKVTKCCTESLVNRRPCFSALELDEAYVPKAFNAETFTFHADMCTLSEKEKQVKKQTALVELVKHKPKATKEQLKGVMDNFAAFVEKCCKADDKEACFAEEGPKFVAASQAALA", "notes": "CSA is not spelled out where it is used; also called cynomolgus serum albumin; cyno serum albumin"}, "B3": {"name": "Human GLP-1 receptor (receptor, UniProt P43220 24-463, looked up)", "chain": "RPQGATVSLWETVQKWREYRRQCQRSLTEDPPPATDLFCNRTFDEYACWPDGEPGSFVNVSCPWYLPWASSVPQGHVYRFCTAEGLWLQKDNSSLPWRDLSECEESKRGERSSPEEQLLFLYIIYTVGYALSFSALVIASAILLGFRHLHCTRNYIHLNLFASFILRALSVFIKDAALKWMYSTAAQQHQWDGLLSYQDSLSCRLVFLLMQYCVAANYYWLLVEGVYLYTLLAFSVLSEQWIFRLYVSIGWGVPLLFVVPWGIVKYLYEDEGCWTRNSNMNYWLIIRLPILFAIGVNFLIFVRVICIVVSKLKANLMCKTDIKCRLAKSTLTLIPLLGTHEVIFAFVMDEHARGTLRFIKLFTELSFTSFQGLMVAILYCFVNNEVQLEFRKSWERWRLEHLHIQRDSSMKPLKCPTSSLSSGATAGSSMYTATCQASCS", "notes": "whole, on cells"}, "B4": {"name": "Mouse GLP-1 receptor (receptor, UniProt O35659 22-463, looked up)", "chain": "GPRPQGTTVSLSETVQKWREYRRQCQRFLTEAPLLATGLFCNRTFDDYACWPDGPPGSFVNVSCPWYLPWASSVLQGHVYRFCTAEGLWLHKDNSSLPWRDLSECEESKRGERNFPEEQLLSLYIIYTVGYALSFSALVIASAILVGFRHLHCTRNYIHLNLFASFILRALSVFIKDAALKWMYSTAAQQHQWDGLLSYQDSLGCRLVFLLMQYCVAANYYWLLVEGVYLYTLLAFSVFSEQRIFKLYLSIGWGVPLLFVIPWGIVKYLYEDEGCWTRNSNMNYWLIIRLPILFAIGVNFLIFIRVICIVVSKLKANLMCKTDIKCRLAKSTLTLIPLLGTHEVIFAFVMDEHARGTLRFIKLFTELSFTSFQGLMVAILYCFVNNEVQMEFRKCWERWRLEHLNIQRDCSMKPLKCPTSSVSSGATVGSSVYAATCQSSYS", "notes": "whole, on cells"}, "B5": {"name": "Rat GLP-1 receptor (receptor, UniProt P32301 22-463, looked up)", "chain": "GPRPQGATVSLSETVQKWREYRHQCQRFLTEAPLLATGLFCNRTFDDYACWPDGPPGSFVNVSCPWYLPWASSVLQGHVYRFCTAEGIWLHKDNSSLPWRDLSECEESKQGERNSPEEQLLSLYIIYTVGYALSFSALVIASAILVSFRHLHCTRNYIHLNLFASFILRALSVFIKDAALKWMYSTAAQQHQWDGLLSYQDSLGCRLVFLLMQYCVAANYYWLLVEGVYLYTLLAFSVFSEQRIFKLYLSIGWGVPLLFVIPWGIVKYLYEDEGCWTRNSNMNYWLIIRLPILFAIGVNFLVFIRVICIVIAKLKANLMCKTDIKCRLAKSTLTLIPLLGTHEVIFAFVMDEHARGTLRFVKLFTELSFTSFQGFMVAVLYCFVNNEVQMEFRKSWERWRLERLNIQRDSSMKPLKCPTSSVSSGATVGSSVYAATCQNSCS", "notes": "whole, on cells"}, "B6": {"name": "Rat serum albumin (RSA) (other, UniProt P02770 25-608, looked up)", "chain": "EAHKSEIAHRFKDLGEQHFKGLVLIAFSQYLQKCPYEEHIKLVQEVTDFAKTCVADENAENCDKSIHTLFGDKLCAIPKLRDNYGELADCCAKQEPERNECFLQHKDDNPNLPPFQRPEAEAMCTSFQENPTSFLGHYLHEVARRHPYFYAPELLYYAEKYNEVLTQCCTESDKAACLTPKLDAVKEKALVAAVRQRMKCSSMQRFGERAFKAWAVARMSQRFPNAEFAEITKLATDVTKINKECCHGDLLECADDRAELAKYMCENQATISSKLQACCDKPVLQKSQCLAEIEHDNIPADLPSIAADFVEDKEVCKNYAEAKDVFLGTFLYEYSRRHPDYSVSLLLRLAKKYEATLEKCCAEGDPPACYGTVLAEFQPLVEEPKNLVKTNCELYEKLGEYGFQNAVLVRYTQKAPQVSTPTLVEAARNLGRVGTKCCTLPEAQRLPCVEDYLSAILNRLCVLHEKTPVSEKVTKCCSGSLVERRPCFSALTVDETYVPKEFKAETFTFHSDICTLPDKEKQIKKQTALAELVKHKPKATEDQLKTVMGDFAQFVDKCCKAADKDNCFATEGPNLVARSKEALA"}, "B7": {"name": "2xGLP-1 (7-37) A8G DOM7h-14 dAb fusion (DAT0114) (other)", "chain": "HGEGTFTSDVSSYLEGQAAKEFIAWLVKGRHGEGTFTSDVSSYLEGQAAKEFIAWLVKGRDIQMTQSPSSLSASVGDRVTITCRASQWIGSQLSWYQQKPGKAPKLLIMWRSSLQSGVPSRFSGSGSGTDFTLTISSLQPEDFATYYCAQGAALPRTFGQGTKVEIKR", "notes": "expressed in HEK293E cells, purified on protein L; also called 2xGLP-1 (7-37) A8G DOM7h-14 fusion"}}, "key": {"[1]": {"biological_target": "Mouse serum albumin (MSA) (mouse, UniProt P07724 25-608)", "sequence (P07724 25-608 limits assumed)": "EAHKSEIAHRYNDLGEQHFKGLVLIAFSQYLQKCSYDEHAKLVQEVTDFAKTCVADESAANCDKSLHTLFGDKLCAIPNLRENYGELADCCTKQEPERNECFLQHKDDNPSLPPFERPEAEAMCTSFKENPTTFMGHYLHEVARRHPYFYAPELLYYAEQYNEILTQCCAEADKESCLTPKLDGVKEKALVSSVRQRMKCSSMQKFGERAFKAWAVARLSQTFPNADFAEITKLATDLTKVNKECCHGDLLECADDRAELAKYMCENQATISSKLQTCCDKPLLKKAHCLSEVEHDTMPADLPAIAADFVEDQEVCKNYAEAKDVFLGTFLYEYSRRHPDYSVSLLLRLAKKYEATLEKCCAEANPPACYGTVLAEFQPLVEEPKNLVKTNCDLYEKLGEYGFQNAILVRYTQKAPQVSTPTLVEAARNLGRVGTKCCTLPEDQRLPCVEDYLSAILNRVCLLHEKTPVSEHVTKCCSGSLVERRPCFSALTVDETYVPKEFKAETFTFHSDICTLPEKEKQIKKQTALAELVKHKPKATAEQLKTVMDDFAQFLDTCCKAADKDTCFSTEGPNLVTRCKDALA", "test": "SPR (Biacore), albumin on CM5 chip, fusion in flow", "experimental": "(§1) The analysis was performed using a CM5 Biacore chip (carboxymethylated dextran matrix) that was coated with serum albumin. About 1000 resonance units (RUs) of each serum albumin to be tested (human, rat and mouse serum albumin) was immobilised in acetate buffer pH 5.5. […] Each fusion molecule tested was expressed in mammalian tissue culture as described in the example above.\n(§2) Affinity (KD) was calculated from the BIACORE traces by fitting on-rate and off-rate curves to traces generated by concentrations of dAb in the region of the KD."}, "Rat serum albumin (RSA)": {"biological_target": "B6", "test": "SPR (Biacore), albumin on CM5 chip, fusion in flow", "experimental": "as §1, §2"}, "[2]": {"biological_target": "Human serum albumin (HSA) (human, UniProt P02768 25-609)", "test": "SPR (Biacore), albumin on CM5 chip, fusion in flow", "experimental": "as §1, §2"}, "[3]": {"biological_target": "T1, Exendin 4 (G4S linker)3 DOM7h-14 dAb fusion (DAT0115)", "T1 construct": "also called Exendin 4 (G4S)3 DOM7h-14 fusion", "test": "SPR (Biacore), biotinylated albumin on SA chip, fusion in flow", "experimental": "The analysis was performed using a streptavidin chip (SA) coated with biotinylated serum albumin. 200-1000 resonance units (RUs) of each serum albumin was immobilised on the chip. Flow cell 1 was uncoated, flow cell 2 was coated with HSA, flow cell 3 was coated with RSA and flow cell 4 was coated with CSA.\nas §2"}, "[4]": {"biological_target": "T2, Exendin 4, (G4S)3, linker DOM7h-14-10 fusion (DMS7139)", "T2 construct": "expressed in E. coli with a cleaved OmpT AWA leader; also called DSM7139", "test": "SPR (Biacore), albumin on CM5 chip, fusion in flow", "experimental": "(§3) The analysis was performed using two CM5 chips (carboxymethylated dextran matrix) that were coated with serum albumin. ˜500 resonance units (RUs) of each serum albumin was immobilised in acetate buffer pH 4.5. The first chip had flow cell 1 uncoated and blocked and flow cell 2 was coated with MSA (560Rus). The second chip had flow cell 1 uncoated and blocked, flow cell 2 was coated with HSA, flow cell 3 was coated with CSA and flow cell 4 was coated with RSA. For all serum albumins, the aim was to coat in the region of 350 RUs of protein onto the chip.\nas §2"}, "[5]": {"biological_target": "T3, Exendin 4, (G4S)3, linker DOM7h-11-15 fusion (DMS7143)", "T3 construct": "expressed in E. coli with a cleaved OmpT AWA leader", "test": "SPR (Biacore), albumin on CM5 chip, fusion in flow", "experimental": "as §3, §2"}, "[6]": {"biological_target": "T2, Exendin 4, (G4S)3, linker DOM7h-14-10 …", "test": "melanophore functional GLP-1R bioassay"}, "[7]": {"biological_target": "T4, Exendin 4-DOM7h-14 dAb fusion (DAT0116)", "T4 construct": "also called Exendin 4 DOM7h-14 fusion", "test": "6CRE-luciferase reporter in CHO cells with human GLP-1R (called GLP-1R binding assay)"}, "[8]": {"biological_target": "T5, Exendin 4, helical linker, DOM7h-14 dAb fusion (DAT0117)", "T5 construct": "also called Exendin 4, helical linker, DOM7h-14 fusion", "test": "6CRE-luciferase reporter in CHO cells with human GLP-1R (called GLP-1R binding assay)"}, "[9]": {"biological_target": "T1, Exendin 4 (G4S linker)3 DOM7h-14 dAb …", "test": "6CRE-luciferase reporter in CHO cells with human GLP-1R (called GLP-1R binding assay)"}}}
{"binder": "B1", "values": [{"measurement": "Kd", "setting": "[1]", "value": 0.11, "unit": "µM"}, {"measurement": "Kd", "setting": "Rat serum albumin (RSA)", "value": 0.8, "unit": "µM"}, {"measurement": "Kd", "setting": "[2]", "value": 0.11, "unit": "µM"}]}
{"binder": "B2", "values": [{"measurement": "Kd", "setting": "[3]", "value": 2, "unit": "µM"}, {"measurement": "Kd", "setting": "[4]", "value": 0.0423, "unit": "µM"}, {"measurement": "Kd", "setting": "[5]", "value": 0.0389, "unit": "µM"}]}
{"binder": "B3", "values": [{"measurement": "binding result", "setting": "[6]", "value": "binds"}, {"measurement": "binding result", "setting": "[7]", "value": "binds"}, {"measurement": "binding result", "setting": "[8]", "value": "binds"}, {"measurement": "binding result", "setting": "[9]", "value": "binds"}]}
{"binder": "B4", "values": [{"measurement": "binding result", "setting": "[6]", "value": "binds"}]}
{"binder": "B5", "values": [{"measurement": "binding result", "setting": "[6]", "value": "binds"}]}
{"binder": "B6", "values": [{"measurement": "Kd", "setting": "[3]", "value": 2, "unit": "µM"}, {"measurement": "Kd", "setting": "[4]", "value": 0.0315, "unit": "µM"}, {"measurement": "Kd", "setting": "[5]", "value": 0.219, "unit": "µM"}]}
{"binder": "B7", "values": [{"measurement": "Kd", "setting": "[1]", "value": 0.13, "unit": "µM"}, {"measurement": "Kd", "setting": "Rat serum albumin (RSA)", "value": 0.7, "unit": "µM"}, {"measurement": "Kd", "setting": "[2]", "value": 0.15, "unit": "µM"}]}
